These results are taken from patent US11702469B2, “Recombinant EGFL7, EGFL7 antibodies, and uses thereof” (Ohio State Innovation Foundation, priority 2017, dated 2023).

In one data set the test system is NICD. The experiment in a line: NICD immunoblot in primary AML blasts. It counts as cell-based, human. The conditions noted are these: 100 μg/ml, 2 hrs, n=3, vs IgG. As for the experimental part: FIG. 23A-23E. EGFL7 suppresses NOTCH signaling in human AML patient blasts. (FIG. 23A) Primary blasts from AML patients (n=3) were cultured in SFEM medium with 2% BSA in the presence or absence (Unstim) of 0.25 μM rEGFL7 for 4 h. Total proteins were extracted for immunoblotting of NICD (cleaved NOTCH1) with GAPDH as loading control. (FIG. 23B) Total RNA was extracted for quantitative real time (qRT-PCR) analysis of HES1 mRNA with β-ACTIN as internal control. *p<0.05 vs un-stimulated control (Unstim). (FIG. 23C) qRT-PCR for NOTCH2 mRNA at 4 h and 24 h after stimulation of primary AML blasts with 0.25 uM rEGFL7 or unstim controls. (FIG. 23D) Primary blasts from AML patients (n=3) were cultured in SFEM medium in the absence or presence of 100 μg/ml of normal IgG or anti-human EGFL7 antibody for 2 h. Total protein was extracted for immunoblotting of NICD with GAPDH as loading control. […] Total RNA was extracted for quantitative real time RT-PCR analysis of HES1 mRNA with β-ACTIN as internal control. *p<0.05, ***p<0.001 vs IgG.
Cells were lysed in 100 μl of Pierce RIPA buffer (Cat. #8990, Thermo Scientific) supplemented with protease and phosphatase inhibitors (Roche) on ice for 20 min. […] Immunoreactive bands were detected using ECL Select Western Blotting Detection Reagent (GE Healthcare). […]
For orientation: Immunoblotting shows a protein as a band on a membrane.

In a further data set the test system is BoyJ recipient mice. The experiment in a line: Competitive repopulation BM transplantation of treated BM. The conditions noted are these: three weeks post-BMT, BM of treated mice vs IgG1 control. The data set is classed as in vivo. As for the experimental part: FIG. 20A-20B. WT mice were treated with 50 mpk twice weekly of Parsatuzumab (@EGFL7) or IgG1 control. FIG. 20A. CBCs from mice harvested after treatment. FIG. 20B. Percent engraftment of treated BM (CD45.2+) transplanted into BoyJ recipient mice (CD45.1).
To assess the toxicity of Parsatuzumab on normal hematopoiesis, wild type (C57Bl/6J) mice were treated with Parsatuzumab (n=4) and IgG1 control (n=4) with the highest dose previously tested at 50 mpk twice a week for two weeks. Parsatuzumab targets both human and mouse EGFL7 protein. After two weeks of treatment, blood, spleen and BM were harvested and full phenotypic characterization was performed to assess toxicity. […] Full immunophenotypic examination of BM populations was also performed (data not shown due to space constraints). […] To functionally test the effect of Parsatuzumab on normal HSPCs, competitive repopulation BM transplantation (BMT) assays and CFU assays were performed. For competitive BMT, 2×10^6 WBM was harvested from Parsatuzumab and IgG1 treated mice (CD45.2) with 2×10^6 BoyJ (CD45.1) WBM and transplanted into lethally irradiated BoyJ recipients.

Data set [1] deals with CD34+ primary AML patient cells. The experiment in a line: Cell-trace violet (CTV) membrane-labeling retention, quiescence. It counts as cell-based, human. To be noted: vs unstimulated / IgG1 controls. From the text:
FIG. 17A-17C. EGFL7 in LSCs. FIG. 17A. qRT-PCR of EGFL7 in LSC-enriched and non-LSC enriched subpopulations of primary AML patient samples normalized to B-ACTIN. Number of quiescent (CTV^MAX) AML cells treated with FIG. 17B. rEGFL7 or control (vs Unstim). FIG. 17C. anti-EGFL7 (Parsatuzumab) antibody or IgG1 control (vs Unstim). *P<0.05.
A morphologically homogenous and functionally static blast population present in the BM and blood of individual AML patients has now evolved into the current perspective of multiple dynamic and heterogeneous cell subpopulations which includes the bulk blast population and the relatively rare leukemia initiating cells (LICs) also referred to as LSCs. Thus, targeting both LSCs and bulk blasts is necessary for complete eradication of the disease. To determine whether EGFL7 has a role in LCS, the LSC-enriched population was first determined within each AML patient sample using long-term colony initiating cell (LTC-IC) assays. […] Next, to determine whether EGFL7 has a role in LSC function, CD34+ cells were isolated and stimulated them with rEGFL7 protein and performed LTC-IC assays. […] To determine whether EGFL7 regulates LSC functions such as cellular quiescence, membrane-labeling retention experiments were performed with cell-trace violet dye (CTV). […]

The test system of another data set is EOL-1 cells. Put plainly: EOL-1 AML xenograft in NSG mice. The conditions noted are these: for overall survival: 50 mg/kg intraperitoneal, three times per week, 4 mice per group, vs IgG1 control.

Entries after “also recorded” stand apart in the source; their conditions may differ.

Experimental for EOL-1 cells: (FIG. 25A) Overall survival of transplanted NSG mice which were treated with Parsatuzumab or IgG1 control (4 mice per group; dosage 50 mg/kg intraperitoneal injected). […] (FIG. 25B) HES-1 levels were measured after in vivo treatment with Parsatuzumab and IgG1 control, GAPDH was used as loading control.
All studies using animals were carried out in accordance with the OSU institutional guidelines for animal care and under protocols approved by the OSU Institutional Animal Care and Use Committee. All mice used in the experiments were between 8 and 10 weeks of age. Female NOD-scid IL2Rg^null (NSG) mice were transplanted with 10×10^6 EOL-1 cells. Two weeks post-transplant mice were treated with Parsatuzumab or IgG1 control (4 mice per group; dosage 50 mg/kg intraperitoneal), three times per week. Mice were monitored closely for clinical signs of leukemia such as weight loss and hind limb paralysis.
Two-tailed student's t tests were performed using GraphPad Prism version 7 (Graphpad Software, San Diego, Calif.) to analyze in vitro and in vivo experiments unless otherwise noted. P values <0.05 were considered significant. Overall survival for the mouse AML xeonograft model was calculated using the Kaplan-Meier method, and survival curves were compared by the log-rank test.
Briefly, 10×10^6 EOL-1 cells were transplanted into non-conditioned NSG recipient mice. Two weeks post-transplantation, mice were treated with 50 mpk of anti-EGFL7 or IgG1 control antibody three times per week (FIG. 25A).

B1: Parsatuzumab: Anti-human EGFL7 therapeutic antibody (Parsatuzumab) obtained from Creative Biolabs; blocking monoclonal antibody (antibody, chains of the INN, looked up, V domains shown)
VH: EVQLVESGGGLVQPGGSLRLSCAASGYTFIDYYMNWVRQAPGKGLEWVGDINLDNSGTHYNQKFKGRFTISRDKSKNTAYLQMNSLRAEDTAVYYCAREGVYHDYDDYAMDYWGQGTLVTVSS
VL: DIQMTQSPSSLSASVGDRVTITCRTSQSLVHINAITYLHWYQQKPGKAPKLLIYRVSNRFSGVPSRFSGSGSGTDFTLTISSLQPEDFATYYCGQSTHVPLTFGQGTKVEIK
For the molecule B1, the NICD levels result in the data set on NICD is on record as “significant increases in NICD levels”. Further, the “donor chimerism / percent engraftment (CD45.1 vs CD45.2)” value with BoyJ recipient mice is listed as “no significant differences; also recorded: No significant changes”. Further, the “number of quiescent cells (CTV^MAX)” value in data set [1] is given as “decrease in the number of quiescent AML cells”. The overall survival result is reported as “significant longer overall survival” in the data set with EOL-1 cells and “prolonged survival” in the data set on EOL-1 cells (listed as anti-EGFL7). Besides, the “HES1 protein (western blots) after in vivo treatment” value in the data set on EOL-1 cells (50 mpk three times per week, vs IgG1 controls) was “increased levels of HES1 protein”.
